Data as given in paper PMC3017672 (Journal of molecular biology, 2010).

Biological target: the molecule itself
Assay: cryo-EM structure

B1: bacteriophage 80α capsid protein gp47 (natural protein, Staphylococcus aureus bacteriophage 80α, UniProt A4ZFB3 15-324, looked up)
chain: ASNNVKPQVFNPDNVMMHEKKDGTLMNEFTTPILQEVMENSKIMQLGKYEPMEGTEKKFTFWADKPGAYWVGEGQKIETSKATWVNATMRAFKLGVILPVTKEFLNYTYSQFFEEMKPMIAEAFYKKFDEAGILNQGNNPFGKSIAQSIEKTNKVIKGDFTQDNIIDLEALLEDDELEANAFISKTQNRSLLRKIVDPETKERIYDRNSDSLDGLPVVNLKSSNLKRGELITGDFDKLIYGIPQLIEYKIDETAQLSTVKNEDGTPVNLFEQDMVALRATMHVALHIADDKAFAKLVPADKRTDSVPGEV
  stoichiometry N: 420 copies
